B1: S2L20 mAb (antibody, V domains shown)
VH: EVQLVESGGGVVQPGGSLRLSCAASGFTFNSYGMHWVRQAPGKGLEWVAFIRYDGGNKYYADSVKGRFTISRDNSKNTLYLQMKSLRAEDTAVYYCANLKDSRYSGSYYDYWGQGTLVTVS
VL: not shown
notes: copies: 2 + 2
B2: S2X303 mAb (antibody, V domains shown)
VH: QITLKESGPTLVKPTQTLTLTCKLSGFSVNTGGVGVGWIRQPPGKALEWLALIYWNDDKLYSPSLKSRLTVTKDTSKNQVVLTMTNMDPVDTATYYCAHVLVWFGEVLPDAFDVWGQGTMVTVSS
VL: SYELTQPPSVSVSPGQTASITCSGDKLGETYASWYQQKPGQSPILVIYQDNKRPSGIPERFSGSNSENTATLTISGTQTMDEADYYCQAWDKTIAGFGGGTKLTV
notes: copies: 2 + 2

Target: recombinant SARS-CoV-2 wildtype Wuhan-Hu-1 S ectodomain trimer (SARS-CoV-2, Wuhan-Hu-1, UniProt P0DTC2)
Assay: ELISA
Settings: both partners purified

Row | Binder | binding result
1 | B1 | binds
2 | B2 | binds

Source: publication PMC12240541 (Science (New York, N.Y.), 2021)
